Experiments:
[1] = biological target: human recombinant adrenomedullin receptor (CRLR+RAMP3) (human)
[2] = biological target: human recombinant adrenomedullin receptor (CRLR+RAMP3) (human); remark: listed apart in the source

IC50 (read off the curve), inhibition of cAMP stimulation by 5.63 nM hADM [1]: 200 nM | IC50 (read off the curve), inhibition of cAMP stimulation by 0.67 nM mADM [2]: 2000 nM
Substance: human ADM 22-52 (from UniProt P35318) (peptide)
